Source: patent EP4636087A1, “ANTI-GPA33 ANTIBODY AND UTILIZATION THEREOF” (Kagoshima University, priority 2022, dated 2024)

T1: mouse GPA33 expressed on CHO-K1 cells (mGPA33-expressing cells) (mouse, UniProt Q9JKA5 22-319)
T1 construct: whole, on cells
T1 sequence (looked up): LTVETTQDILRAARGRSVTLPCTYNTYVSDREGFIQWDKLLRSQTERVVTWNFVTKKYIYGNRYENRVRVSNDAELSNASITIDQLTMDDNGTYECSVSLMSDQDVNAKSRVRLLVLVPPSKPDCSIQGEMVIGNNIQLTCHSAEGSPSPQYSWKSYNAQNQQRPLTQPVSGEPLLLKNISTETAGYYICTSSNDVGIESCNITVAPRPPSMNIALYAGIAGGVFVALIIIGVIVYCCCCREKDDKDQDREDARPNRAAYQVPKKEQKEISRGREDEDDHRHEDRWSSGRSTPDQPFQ

T2: human GPA33 expressed on CHO-K1 cells (hGPA33-expressing cells co-expressing GFP) (human, UniProt Q99795 22-319)
T2 construct: whole, on cells; CHO-K1 transfected with an hGPA33 expression vector (ORIGENE) co-expressing GFP
T2 sequence (looked up): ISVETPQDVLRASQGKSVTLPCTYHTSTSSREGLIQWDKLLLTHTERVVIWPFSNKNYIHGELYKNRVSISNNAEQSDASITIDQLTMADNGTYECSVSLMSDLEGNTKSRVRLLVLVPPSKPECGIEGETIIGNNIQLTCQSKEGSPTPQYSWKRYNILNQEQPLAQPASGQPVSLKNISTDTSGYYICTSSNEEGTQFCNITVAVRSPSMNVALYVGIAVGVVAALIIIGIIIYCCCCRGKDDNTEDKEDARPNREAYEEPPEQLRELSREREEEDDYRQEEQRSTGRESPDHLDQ

T3: mouse GPA33 recombinant protein (C-terminal His tag fusion protein, abcam) (mouse, UniProt Q9JKA5 22-235, limits assumed)
T3 construct: Bought recombinant protein (abcam); also called mGPA33
T3 sequence (looked up): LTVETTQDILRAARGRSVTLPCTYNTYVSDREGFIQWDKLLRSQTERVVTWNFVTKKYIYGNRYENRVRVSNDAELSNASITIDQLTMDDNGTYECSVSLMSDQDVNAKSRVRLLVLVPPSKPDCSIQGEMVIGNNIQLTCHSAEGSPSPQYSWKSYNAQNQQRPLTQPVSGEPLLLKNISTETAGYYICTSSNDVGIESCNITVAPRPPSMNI

T4: human GPA33 recombinant protein (C-terminal His tag fusion protein, abcam) (human, UniProt Q99795 22-235, limits assumed)
T4 construct: Bought recombinant protein (abcam); also called hGPA33
T4 sequence (looked up): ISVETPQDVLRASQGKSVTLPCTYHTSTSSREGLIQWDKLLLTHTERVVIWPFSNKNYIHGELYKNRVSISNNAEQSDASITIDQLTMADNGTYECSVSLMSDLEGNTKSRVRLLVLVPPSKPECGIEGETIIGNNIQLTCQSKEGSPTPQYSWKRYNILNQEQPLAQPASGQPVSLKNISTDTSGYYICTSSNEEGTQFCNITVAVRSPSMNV

T5: human GPA33 expressed on HEK293STF cells (EGFP-human GPA33 expression vector, ORIGENE RG210225) (human, UniProt Q99795 22-319)
T5 sequence (looked up): T2 sequence (looked up)

B1: GPA33-2RC17 cloned scFv phage (scFv)
scFv: QMQLVQSGGGLVKPGGSLRLSCAASGFTFSSYNMNWVRQAPGKGLEWVSSISSSGDFMYYADSVKGRFTISRDNAKNSLYLQMSSLRAEDTAVYYCAREGPGTPFDYWGQGTLVTVSSGGGGSGGGGSGSTGSAIQLTQSPSSLSASVGDRVTITCRASQSISSFLNWYQHKPGKAPKLLIYVASSLQSGVPSRFSGSGSGTDFTLTISSLQPEDFATYYCQQSHNTPYTFGQGTKLEIK
notes: also called G17
B2: GPA33-2RC28 cloned scFv phage (scFv)
scFv: EVQLVESGGGLVKPGGSLRLSCAASGFTFSSYSMNWVRQAPGKGLEWVSSISRDSTYIYYADSVKGRFTISRDNAKNSLYLQMNSLRAEDTAVYYCAREGVAGAFDIWGQGTMVTVSSGGGGSGGGGSGSTGSAIQLTQSPSSLSASVGDRVTITCRASQSISSYLNWYQQKPGKAPKLLIYIASSLQSGVPSRFSGSGSGTDFTLTISSLQPEDFATYYCQQSYNTWTFGQGTKVEIK
B3: GPA2RC17-Fc (anti-GPA33 single-chain Fv-Fc, scFv linked to human IgG1-Fc) (Fc fusion)
chain: QMQLVQSGGGLVKPGGSLRLSCAASGFTFSSYNMNWVRQAPGKGLEWVSSISSSGDFMYYADSVKGRFTISRDNAKNSLYLQMSSLRAEDTAVYYCAREGPGTPFDYWGQGTLVTVSSGGGGSGGGGSGSTGSAIQLTQSPSSLSASVGDRVTITCRASQSISSFLNWYQHKPGKAPKLLIYVASSLQSGVPSRFSGSGSGTDFTLTISSLQPEDFATYYCQQSHNTPYTFGQGTKLEIKPKSSDKTHTCPPCPAPEAEGAPSVFLFPPKPKDTLMISRTPEVTCVVVDVSHEDPEVKFNWYVDGVEVHNAKTKPREEQYNSTYRVVSVLTVLHQDWLNGKEYKCAVSNKALPASIEKTISKAKGQPREPQVYTLPPSREEMTKNQVSLTCLVKGFYPSDIAVEWESNGQPENNYKTTPPVLDSDGSFFLYSKLTVDKSRWQQGNVFSCSVMHEALHNHYTQKSLSLSPGK
notes: also called 2RC17 scFv-Fc; 2RC17-scFv-Fc
B4: GPA2RC28-Fc (anti-GPA33 single-chain Fv-Fc, scFv linked to human IgG1-Fc) (Fc fusion)
chain: EVQLVESGGGLVKPGGSLRLSCAASGFTFSSYSMNWVRQAPGKGLEWVSSISRDSTYIYYADSVKGRFTISRDNAKNSLYLQMNSLRAEDTAVYYCAREGVAGAFDIWGQGTMVTVSSGGGGSGGGGSGSTGSAIQLTQSPSSLSASVGDRVTITCRASQSISSYLNWYQQKPGKAPKLLIYIASSLQSGVPSRFSGSGSGTDFTLTISSLQPEDFATYYCQQSYNTWTFGQGTKVEIKPKSSDKTHTCPPCPAPEAEGAPSVFLFPPKPKDTLMISRTPEVTCVVVDVSHEDPEVKFNWYVDGVEVHNAKTKPREEQYNSTYRVVSVLTVLHQDWLNGKEYKCAVSNKALPASIEKTISKAKGQPREPQVYTLPPSREEMTKNQVSLTCLVKGFYPSDIAVEWESNGQPENNYKTTPPVLDSDGSFFLYSKLTVDKSRWQQGNVFSCSVMHEALHNHYTQKSLSLSPGK
notes: also called 2RC28 scFv-Fc; 2RC28 single-chain Fv-Fc
B5: G17-R1CRD-His (other)
chain: QMQLVQSGGGLVKPGGSLRLSCAASGFTFSSYNMNWVRQAPGKGLEWVSSISSSGDFMYYADSVKGRFTISRDNAKNSLYLQMSSLRAEDTAVYYCAREGPGTPFDYWGQGTLVTVSSGGGGSGGGGSGSTGSAIQLTQSPSSLSASVGDRVTITCRASQSISSFLNWYQHKPGKAPKLLIYVASSLQSGVPSRFSGSGSGTDFTLTISSLQPEDFATYYCQQSHNTPYTFGQGTKLEIKGGSGGSISAEGSQACAKGCELCSEVNGCLKCSPKLFILLERNDIRQVGVCLPSCPPGYFDARNPDMNKCIKCKIEHCEACFSHNFCTKCKEGLYLHKGRCYPACPEGSSAANGTMECSSPAHHHHHHGA
B6: G17-R1CRD-GS3-Fcm (Fc fusion)
chain: QMQLVQSGGGLVKPGGSLRLSCAASGFTFSSYNMNWVRQAPGKGLEWVSSISSSGDFMYYADSVKGRFTISRDNAKNSLYLQMSSLRAEDTAVYYCAREGPGTPFDYWGQGTLVTVSSGGGGSGGGGSGSTGSAIQLTQSPSSLSASVGDRVTITCRASQSISSFLNWYQHKPGKAPKLLIYVASSLQSGVPSRFSGSGSGTDFTLTISSLQPEDFATYYCQQSHNTPYTFGQGTKLEIKGGSGGSISAEGSQACAKGCELCSEVNGCLKCSPKLFILLERNDIRQVGVCLPSCPPGYFDARNPDMNKCIKCKIEHCEACFSHNFCTKCKEGLYLHKGRCYPACPEGSSAANGTMECSSGGGGSGGGGSGGGGSEPKSADKTHTCPPCPAPEAEGAPSVFLFPPKPKDTLMISRTPEVTCVVVDVSHEDPEVKFNWYVDGVEVHNAKTKPREEQYNSTYRVVSVLTVLHQDWLNGKEYKCAVSNKALPASIEKTISKAKGQPREPQVYTLPPSREEMTKNQVSLTCLVKGFYPSDIAVEWESNGQPENNYKTTPPVLDSDGSFFLYSKLTVDKSRWQQGNVFSCSVMHEALHNHYTQKSLSLSPGK
B7: G17-R4CRD-His (other)
chain: QMQLVQSGGGLVKPGGSLRLSCAASGFTFSSYNMNWVRQAPGKGLEWVSSISSSGDFMYYADSVKGRFTISRDNAKNSLYLQMSSLRAEDTAVYYCAREGPGTPFDYWGQGTLVTVSSGGGGSGGGGSGSTGSAIQLTQSPSSLSASVGDRVTITCRASQSISSFLNWYQHKPGKAPKLLIYVASSLQSGVPSRFSGSGSGTDFTLTISSLQPEDFATYYCQQSHNTPYTFGQGTKLEIKGGSGGSGGNCTGCIICSEENGCSTCQQRLFLFIRREGIRQYGKCLHDCPPGYFGIRGQEVNRCKKCGATCESCFSQDFCIRCKRQFYLYKGKCLPTCPPGTLAHQNTRECQGHHHHHHGA
B8: G17-R2CRD-His (other)
chain: QMQLVQSGGGLVKPGGSLRLSCAASGFTFSSYNMNWVRQAPGKGLEWVSSISSSGDFMYYADSVKGRFTISRDNAKNSLYLQMSSLRAEDTAVYYCAREGPGTPFDYWGQGTLVTVSSGGGGSGGGGSGSTGSAIQLTQSPSSLSASVGDRVTITCRASQSISSFLNWYQHKPGKAPKLLIYVASSLQSGVPSRFSGSGSGTDFTLTISSLQPEDFATYYCQQSHNTPYTFGQGTKLEIKGGGGSGGGGSGGGGSNPICKGCLSCSKDNGCSRCQQKLFFFLRREGMRQYGECLHSCPSGYYGHRAPDMNRCARCRIENCDSCFSKDFCTKCKVGFYLHRGRCFDECPDGFAPLEETMECVEGHHHHHHGA
B9: R1CRD-G17-His (other)
chain: ISAEGSQACAKGCELCSEVNGCLKCSPKLFILLERNDIRQVGVCLPSCPPGYFDARNPDMNKCIKCKIEHCEACFSHNFCTKCKEGLYLHKGRCYPACPEGSSAANGTMECSSGGGGSGGGGSGGGGSQMQLVQSGGGLVKPGGSLRLSCAASGFTFSSYNMNWVRQAPGKGLEWVSSISSSGDFMYYADSVKGRFTISRDNAKNSLYLQMSSLRAEDTAVYYCAREGPGTPFDYWGQGTLVTVSSGGGGSGGGGSGSTGSAIQLTQSPSSLSASVGDRVTITCRASQSISSFLNWYQHKPGKAPKLLIYVASSLQSGVPSRFSGSGSGTDFTLTISSLQPEDFATYYCQQSHNTPYTFGQGTKLEIKHHHHHHGA

The binders below were run against T1, mouse GPA33 expressed on CHO-K1 cells … (assay: FACS, cloned phage on GPA33-expressing CHO-K1 cells).

B1: binds.
B2: binds.

These binders were tested against T2, human GPA33 expressed on CHO-K1 cells … in the same assay as above.

B1: binds.
B2: binds.

The binders below were run against T3, mouse GPA33 recombinant protein … (assay: SPR, Biacore T200, 25°C, GPA33-His amine-coupled on CM5, scFv-Fc as analyte, 1:1 binding model).

Going from B3 to B4, the Kd rises from 3.8 nM to 6.9 nM (1.8-fold). The first binds more tightly here.

Each binder was assayed against T4, human GPA33 recombinant protein … in the same assay as above.

Compared with B3, B4 is 4.1-fold higher in Kd: 1.4 nM for the first, 5.7 nM for the second. The first binds more tightly here.

Each binder was assayed against T5, human GPA33 expressed on HEK293STF … (assay: cell-based or functional assay).

Compared with B5, B6 is 1.7-fold higher in “EC50(GPA33) (nM), Wnt/β-catenin reporter in 293STF cells expressing GPA33” value (“EC50(GPA33) (nM), Wnt/β-catenin reporter” for short): 0.031 nM for the first, 0.054 nM for the second.

First: B7
Second: B8
The “EC50(GPA33) (nM), Wnt/β-catenin reporter” value of the first is 2.6-fold lower: 0.008 nM for the first, 0.021 nM for the second.

For B9, the “EC50(GPA33) (nM), Wnt/β-catenin reporter” value was 0.027 nM.

B5 and B6 cannot be ordered by “EC50(MOG)/ EC50(GPA33)” value: 968 for the first, greater than 556 for the second.

Going from B7 to B8, the “EC50(MOG)/ EC50(GPA33)” value falls from 348 to 15.2.

B9 was tested, and the “EC50(MOG)/ EC50(GPA33)” value was 307.
